# According to patent US8088892B2, “Inhibitors of proteins from the Rho-GEF family” (Centre National de la Recherche Scientifique (C.N.R.S.), priority 2002, dated 2012):
# Entries after “also recorded” stand apart in the source; their conditions may differ. Like-named read-outs stand apart in the source and are kept apart here.
# What was measured:
# TrioGEFD2 [1] = target: T1, TrioGEFD2 (Homo sapiens, UniProt O75962); experiment: Yeast Exchange Assay (YEA), RhoA activation; assay type: cell-based; conditions: yeast strain TAT7, reporter gene
# Description: (§1) The wild type GTPase is fused to the LexA DNA binding domain (Matchmaker GAL4 two-hybrid, Clontech Laboratories, Inc., USA) and the effector to the […] (Matchmaker GAL4 two-hybrid, Clontech, Inc., USA). Under these conditions, no binding occurs in the TAT7 strain (De Toledo et al., 2000). Upon addition of a third plasmid expressing the GEF, the GTPase gets activated and binds to its effector, thus leading to the transactivation of the reporter gene LacZ.
# TrioGEFD2, a control GEF (GEF720) or an empty vector (−GEF: corresponds to a vector without GEF) were introduced into the YEA system and analysed for their ability to transactivate the reporter gene in absence (left panel) or in the presence (right panel) of TRIPα.
# (§2) In order to better characterise the effect of TRIAPα on the Trio full length RhoGEF activity, the yeast exchange assay (YEA) was used, which is a quick and quantitative test derived from the classical two-hybrid system allowing to measure Rho-GEF activity and specificity (De Toledo et al., 2000). This functional assay is based on the fact that the GTPase binds to its effector only if it is activated by a RhoGEF. Briefly, yeasts are transformed with the GTPase fused to the LexA binding domain (LexA), and its effector to the GAL-4 Activating Domain (GAD), and with the adequate Rho-GEF partner in the yeast strain TAT7 (FIG. 7). […]
# Full length Trio (RhoG) = target: T2, Full length Trio (RhoG) (Homo sapiens, UniProt O75962); experiment: Yeast Exchange Assay (YEA), full length Trio on RhoG; assay type: cell-based; set-up: key to activation of the reporter gene by full length Trio, RhoG: “+ +” represents a slight activation of the reporter gene; “+ + + +” represents a strong activation of the reporter gene; “−” represents no activation of the reporter gene
# T2 construct: Full length Trio was introduced into the YEA; expressed in transfected cells; host or cells: yeast strain TAT7
# Description: as §1
# Full length Trio was introduced into the YEA and tested for its ability to activate RhoA and RhoG respectively, in the presence or absence of TRIPα. The table below summarizes the effect of TRIPα on Trio as schematized in this Figure.
# as §2
# TrioGEFD2 [2] = target: T1, TrioGEFD2; experiment: In vitro guanine nucleotide exchange (GEF) assay on RhoA; assay type: biochemical; set-up: using recombinant GST-TrioGEFD2 (a.a. 1848-2298), TrioDH2 (a.a. 1848-2096); made in house; key to in vitro GEF assay (inhibition): +++^2 and +^2 represent respectively a full and a partial (see FIG. 3) inhibitory effect; +++^2 and +^2 represent respectively a full and a partial (see FIG. 3) inhibitory effect; −−^2 represents a lack of inhibitory effect; conditions: for Inhibition of TrioGEFD2 exchange activity on RhoA in vitro: 20-fold molar excess (8 μM) inhibitor, 0.4 μM GST-GEFD2, 0.3 μM [3H]GDP-RhoA, 15 min; for IC50: 0.4 μM GST-GEFD2, 0.3 μM RhoA, increasing amounts of GST-TRIAPα, read-out: apparent half-inhibitory concentration (inhibition of TrioGEFD2)
# Description: For that purpose, aptamers, TrioGEFD2 and RhoA are expressed as GST-fusion proteins. RhoA is loaded with ^3H-GDP, and the release of GDP is followed after addition of GEFD2 in presence or in absence of the selected aptamers (as described in Debant et al., 1996).
# A 20-fold molar excess (8 μM) of GST-aptamers TRIAPα, TRIAPβ (another TrioGEFD2 binding aptamer), TRIAPγ (another TrioGEFD2 binding aptamer) or the empty thioredoxine (Trx) were pre-incubated with 0.4 μM GST-GEFD2 (left side of FIG. 2A) or 0.4 μM GST-DH2 (right side of FIG. 2A), as indicated, before adding 0.3 μM of [^3H]GDP loaded GST-RhoA. The exchange activity was monitored by the decrease of [^3H]GDP bound-RhoA after 15 min (see Materials and Methods). The amount of [^3H]GDP bound-RhoA incubated without GEF (first bar on the left) was defined as 100% The values and errors bars were calculated from at least three independent experiments.
# 0.4 μM GST-GEFD2 were incubated with increasing amounts of GST-TRIAPα (grey bars) or GST (black bars), and the exchange assay was then performed on 0.3 μM RhoA, as described in A.
# An in vitro guanine nucleotide exchange (GEF) assay was used to test whether the TrioGEFD2-binding aptamers could inhibit the catalytic activity of TrioGEFD2 towards RhoA. For this purpose, the aptamers TRIAPα, TRIAPβ and TRIAPγ (including the Trx gene) were excised from pEG202 as EcoRI/NotI fragments and cloned into pGEX4T1 EcoRI/NotI. The aptamers were then expressed and purified from bacteria as GST fusion proteins, using standard procedures (Smith and Johnson, 1988). GTPase-GST fusion proteins were prepared, loaded with [^3H]GDP and the guanine nucleotide release assays were performed as described (Debant et al., 1996), using recombinant GST-TrioGEFD2 (a.a. 1848-2298), TrioDH2 (a.a. 1848-2096). For each point, 0.3 μM GTPase was mixed with or without 0.4 μM GEF in presence of non-labeled GTP, and the reaction mix was filtered after 0 min and 15 mm reaction at 25° C. The catalytic activity of TrioGEFD2 was thus measured by the decrease of the GTPase-associated radioactivity. The results are expressed as the ratio “exchange after 15 min over exchange after 0 min” (% bound [^3H]GDP-RhoA). To measure the effect of the aptamers on the exchange activity, a 20-fold molar excess of GST-TRIAPs was pre-incubated with GEFD2 (or GEFD1) for 30 min on ice before the exchange assay was carried out. For each experiment, data were obtained in triplicate.
molecule,measurement,setting,value
"AREGADGAICGYNLATLVMLGPSERVFCPLCEPCSSDIYELM [TRIPα, 42-amino acid peptide corresponding to the variable region of TRIAPα]",Inhibition of TrioGEFD2-mediated RhoA activation in the YEA system,TrioGEFD2 [1],inhibits TrioGEFD2-mediated RhoA activation
same,"activation of the reporter gene by full length Trio, RhoG",Full length Trio (RhoG); +TRIPα (−TRIPα: + +),+ + + +
same,Inhibition of TrioGEFD2 exchange activity on RhoA in vitro,TrioGEFD2 [2],inhibits TrioGEFD2 activity to a similar level than TRIAPα; also recorded: as potent as TRIAPα
TRIAPα: aptamer of 154 amino acids: variable region of 42 amino acids inserted into the thioredoxin protein; tested as GST fusion (protein) MSDKIIHLTDDSFDTDVLKADGAILVDFWAEWCGPAREGADGAICGYNLATLVMLGPSERVFCPLCEPCSSDIYELMGPCKMIAPILDEIADEYQGKLTVAKLNIDQNPGTAPKYGIRGIPTLLLFKNGEVASATKVGALSKGQLKEFLDANLA,Inhibition of TrioGEFD2-mediated RhoA activation in the YEA system,TrioGEFD2 [1],blocked specifically TrioGEFD2-mediated activation of RhoA
same,Effect on full-length Trio (TrioGEFD1) activation of RhoG in the YEA system,Full length Trio (RhoG),greatly enhanced TrioGEFD1 activation of RhoG
same,IC50,TrioGEFD2 [2]; listed as OST-TRIAPα,~4 µM
same,IC50,TrioGEFD2 [2],4 µM
same,Inhibition of TrioGEFD2 exchange activity on RhoA in vitro,TrioGEFD2 [2],potent inhibitor of TrioGEFD2 activity; also recorded: inhibits
same,in vitro GEF assay (inhibition),TrioGEFD2 [2]; RhoGEF TrioDH2PH2,+++^2
